Laboratory results: patent US20040072185A1 (published 2004)

Molecular target: the molecule itself
Assay: Western blotting of the microsomal fraction of transfected cells; self-association
Method: The truncated SERCA1 protein could be detected in the microsomal fraction of transiently transfected cells, by western blotting. […] Immunohistochemical analyses of the transfected cells were carried out with the anti-SERCA1-T antibody and made it possible to detect a reticular location in the cells transfected with S1T+4.

B1: S1T+4 truncated SERCA1 protein (other)
chain: MEAAHAKTTEECLAYFGVSETTGLTPDQVKRNLEKYGLNELPAEEGKTLWELVIEQFEDLLVRILLLAACISFVLAWFEEGEETITAFVEPFVILLILIANAIVGVWQERNAENAIEALKEYEPEMGKVYRADRKSVQRIKARDIVPGDIVEVAVGDKVPADIRILAIKSTTLRVDQSILTGESVSVIKHTEPVPDPRAVNQDKKNMLFSGTNIAAGKALGIVATTGVGTEIGKIRDQMAATEQDKTPLQQKLDEFGEQLSKVISLICVAVWLINIGHFNDPVHGGSWFRGAIYYFKIAVALAVAAIPEGLPAVITTCLALGTRRMAKKNAIVRSLPSVETLGCTSVICSDKTGTLTTNQMSVCKMFIIDKVDGDICLLNEFSITGSTYAPEGEVPKVSMRRSARPPRQHSPPWWRR
notes: Splice variant of SERCA1 lacking exon 11, expected size 46 kDa; Expressed in transfected cells or endogenous in cell lines; also called SERCA1-T
binding result: binds
